Laboratory results published in patent US20130136748A1 (Ablynx, published 2013).
Residue numbers refer to the chain shown, from its start. Names and notes keep the numbering of the source. Values joined by “and” are separate entries in the source; they are usually repeats but may differ in a detail not shown here. Equal entries are not always repeated.

T1: Chicken Her3 (AA1-25 human, AA26-642 chicken) (chicken (human signal sequence))
T1 construct: Transmembrane and extracellular regions only, on transiently transfected HEK293 cells; also called full length extracellular chicken HER3
T1 chain: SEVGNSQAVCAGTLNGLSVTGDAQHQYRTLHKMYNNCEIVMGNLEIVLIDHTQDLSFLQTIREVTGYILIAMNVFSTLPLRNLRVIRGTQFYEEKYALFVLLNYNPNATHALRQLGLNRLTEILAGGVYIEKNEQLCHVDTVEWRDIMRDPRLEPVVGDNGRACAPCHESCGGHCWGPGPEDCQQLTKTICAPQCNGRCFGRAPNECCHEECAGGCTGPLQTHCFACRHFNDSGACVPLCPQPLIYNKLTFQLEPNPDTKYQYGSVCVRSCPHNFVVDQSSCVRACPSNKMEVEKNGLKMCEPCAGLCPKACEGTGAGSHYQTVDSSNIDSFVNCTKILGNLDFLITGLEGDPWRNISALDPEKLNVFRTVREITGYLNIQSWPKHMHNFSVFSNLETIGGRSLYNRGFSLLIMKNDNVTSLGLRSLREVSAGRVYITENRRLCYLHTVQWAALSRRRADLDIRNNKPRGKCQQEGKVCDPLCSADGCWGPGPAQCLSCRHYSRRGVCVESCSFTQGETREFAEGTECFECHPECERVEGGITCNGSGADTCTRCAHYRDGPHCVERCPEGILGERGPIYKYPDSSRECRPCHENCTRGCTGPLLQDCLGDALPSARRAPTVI

T2: cHER3ECD (Maccaca fascicularis HER3 extracellular domain) (Macaca fascicularis, UniProt P21860 20-643 (human entry))
T2 construct: also called cyno HER3ECD; cyno HER3-ECD
T2 chain: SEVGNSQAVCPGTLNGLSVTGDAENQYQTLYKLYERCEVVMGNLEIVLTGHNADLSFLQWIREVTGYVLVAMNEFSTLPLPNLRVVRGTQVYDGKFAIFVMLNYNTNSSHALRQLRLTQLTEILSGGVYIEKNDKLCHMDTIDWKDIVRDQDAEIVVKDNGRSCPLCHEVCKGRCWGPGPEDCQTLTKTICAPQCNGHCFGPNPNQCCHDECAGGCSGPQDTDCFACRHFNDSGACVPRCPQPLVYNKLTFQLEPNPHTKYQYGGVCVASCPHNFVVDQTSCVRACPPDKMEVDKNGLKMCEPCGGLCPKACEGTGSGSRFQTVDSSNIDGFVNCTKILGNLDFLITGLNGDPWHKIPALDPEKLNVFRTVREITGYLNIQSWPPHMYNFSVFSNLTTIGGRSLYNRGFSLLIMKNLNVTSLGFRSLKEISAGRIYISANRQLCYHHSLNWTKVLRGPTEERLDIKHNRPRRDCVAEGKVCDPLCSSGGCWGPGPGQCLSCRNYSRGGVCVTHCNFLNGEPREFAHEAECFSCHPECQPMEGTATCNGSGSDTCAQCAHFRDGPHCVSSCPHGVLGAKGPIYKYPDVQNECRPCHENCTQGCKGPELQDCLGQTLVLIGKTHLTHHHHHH

B1: 23F05 (VHH)
VHH: EVQLVESGGGLVQAGGSLRLSCAASGFTFDGYAIGWFRQAPGKEREGVSCISGGDGRSYYADSVKGRFTVSSDNAKNTLYLEMNSLKPEDTAVYYCAVIWGPYCSDSYEYLYEYDYWGQGTQVTVSS
B2: HER3MS0050 (VHH)
VHH: EVQLVESGGGLVQPGGSLRLSCAASGTLFKINAMGWYRQAPGKRRELVALITSSDTTDYAESVEGRFTISRDNTWNAVYLQMNSLRPEDTAVYYCHSDHYSMGVPEKRVIMYGQGTLVTVSS
notes: Kabat numbering; also called 18G11 basic variant
B3: HER3MS00125 (VHH)
VHH: B2 VHH with R44Q, S62D, E64K, T74S, A77T, M102L, M111L
notes: 18G11 second round variant with R44Q
B4: HER3MS00211 (VHH)
VHH: B2 VHH with E61D, E64K, T74S, A77T, M102L, M111L
notes: 18G11 second round variant without R44Q (selected)
B5: 21B02 (VHH)
VHH: EVQLVESGGGLVQPGGSLRLSCAASGFTFDYYTIGWFRQAPGKEREGVSCISSRDGDSYYADSVKGRFTISRDNAKNTAYLQMNSLKPEDTAVYYCAASASDYGLGLELFHDEYNYWGQGTQVTVSS
B6: 21F06 (VHH)
VHH: EVQLVESGGGLVQAGGSLRLSCAASGRTYYLNAMGWFRQGPGKDREFVAAIDWSDGNKDYADSVKGRFTISRDNAKNTVYLQMNSLKPEDTAVYYCAADTPPWGPMIYIESYDSWGQGTQVTVSS
notes: c-myc, His6-tagged form as expressed; also called 21F6; HER3MS21F06
B7: HER3MS00049 (VHH)
VHH: B6 VHH with A14P, G40A, D44E, A75S, K87R, Q120L
notes: 21F06 basic + G40A + D44E; also called HER3MS0049

Columns and labels:
human HER4 [1] = target: T3, human HER4 (human, UniProt Q15303 26-1308); experiment: FACS, CHO-HER4
[2] = target: T4, hHER3 ECD (human HER3 extracellular domain) (human, UniProt P21860 20-643); experiment: ELISA, coated hHER3-ECD
T4 construct: also called recombinant HER3-ECD

hHER3 full length [3] = target: T5, hHER3 full length (human, UniProt P21860 20-1342); experiment: FACS, 400 nM, competitor 23F05-biotin
T5 construct: On transfected CHO, CHO HER2/HER3, CHO EGFR/HER3 or CHO Flp-In cells; endogenous HER3 of MCF-7 and MDA-MB468 cells in the signalling assays; also called human HER3

hHER3 full length [4] = target: T5, hHER3 full length; experiment: FACS, 400 nM, competitor 17C08-biotin
human HER4 [5] = target: T3, human HER4; experiment: FACS CHO-HER4, 2000 nM
hHER3 full length [6] = target: T5, hHER3 full length; experiment: FACS competition with HRG1-β1-EGF, CHO-HER3
hHER3 full length [7] = target: T5, hHER3 full length; experiment: FACS, 400 nM, competitor 18E08-biotin
human HER4 [8] = target: T3, human HER4; experiment: FACS CHO-HER4, 222 nM
human HER1 [9] = target: T6, human HER1 (human, UniProt P00533 25-1210); experiment: FACS, CHO-HER1
T6 construct: also called EGFR; ErbB1

hHER3 full length [10] = target: T5, hHER3 full length; experiment: FACS, 400 nM, competitor 21B02-biotin
human HER1 [11] = target: T6, human HER1; experiment: FACS CHO-HER1, 222 nM
human HER2 [12] = target: T7, human HER2 (human, UniProt P04626 23-1255); experiment: FACS CHO-HER2, 667 nM
T7 construct: also called hHER2

human HER2 [13] = target: T7, human HER2; experiment: FACS, CHO-HER2
hHER3 full length [14] = target: T5, hHER3 full length; experiment: FACS, 400 nM, competitor 04C07-biotin
human HER2 [15] = target: T7, human HER2; experiment: FACS CHO-HER2, 222 nM
human HER4 [16] = target: T3, human HER4; experiment: FACS CHO-HER4, 667 nM
human HER1 [17] = target: T6, human HER1; experiment: FACS CHO-HER1, 667 nM
hHER3 full length [18] = target: T5, hHER3 full length; experiment: cell-based or functional assay
human HER2 [19] = target: T7, human HER2; experiment: FACS CHO-HER2, 2000 nM
hHER3 full length [20] = target: T5, hHER3 full length; experiment: FACS, 400 nM, competitor 04F10-biotin
[21] = target: T1, Chicken Her3 (AA1-25 human, AA26-642 …); experiment: FACS, HEK293 with chicken HER3
[22] = target: T8, human HER3-Fc (R&D Systems, 348-RB) (human, UniProt P21860 20-643); experiment: SPR, HER3-Fc captured by anti-Fc
T8 construct: Bought; also called hHER3-Fc; Fc-HER3; Fc part of the bought chimera not given, not described

human HER1 [23] = target: T6, human HER1; experiment: FACS CHO-HER1, 2000 nM
[24] = target: T2, cHER3ECD (Maccaca fascicularis HER3 …); experiment: ELISA, coated cHER3-ECD
hHER3 full length [25] = target: T5, hHER3 full length; experiment: cell-based or functional assay; remark: listed apart in the source
[26] = target: T8, human HER3-Fc (R&D Systems, 348-RB); experiment: alphascreen, competitor biotinylated 18G11
[27] = target: T4, hHER3 ECD (human HER3 extracellular …); experiment: SPR off rate
[28] = target: T8, human HER3-Fc (R&D Systems, 348-RB); experiment: 18G11 competition alphascreen
hHER3 full length [29] = target: T5, hHER3 full length; experiment: cell-based or functional assay; remark: listed apart in the source
[30] = target: T8, human HER3-Fc (R&D Systems, 348-RB); experiment: HRG competition alphascreen
[31] = target: T8, human HER3-Fc (R&D Systems, 348-RB); experiment: HRG competition alphascreen; remark: listed apart in the source
hHER3 full length [32] = target: T5, hHER3 full length; experiment: cell-based or functional assay; remark: listed apart in the source

T3 sequence (Q15303 26-1308 limits assumed): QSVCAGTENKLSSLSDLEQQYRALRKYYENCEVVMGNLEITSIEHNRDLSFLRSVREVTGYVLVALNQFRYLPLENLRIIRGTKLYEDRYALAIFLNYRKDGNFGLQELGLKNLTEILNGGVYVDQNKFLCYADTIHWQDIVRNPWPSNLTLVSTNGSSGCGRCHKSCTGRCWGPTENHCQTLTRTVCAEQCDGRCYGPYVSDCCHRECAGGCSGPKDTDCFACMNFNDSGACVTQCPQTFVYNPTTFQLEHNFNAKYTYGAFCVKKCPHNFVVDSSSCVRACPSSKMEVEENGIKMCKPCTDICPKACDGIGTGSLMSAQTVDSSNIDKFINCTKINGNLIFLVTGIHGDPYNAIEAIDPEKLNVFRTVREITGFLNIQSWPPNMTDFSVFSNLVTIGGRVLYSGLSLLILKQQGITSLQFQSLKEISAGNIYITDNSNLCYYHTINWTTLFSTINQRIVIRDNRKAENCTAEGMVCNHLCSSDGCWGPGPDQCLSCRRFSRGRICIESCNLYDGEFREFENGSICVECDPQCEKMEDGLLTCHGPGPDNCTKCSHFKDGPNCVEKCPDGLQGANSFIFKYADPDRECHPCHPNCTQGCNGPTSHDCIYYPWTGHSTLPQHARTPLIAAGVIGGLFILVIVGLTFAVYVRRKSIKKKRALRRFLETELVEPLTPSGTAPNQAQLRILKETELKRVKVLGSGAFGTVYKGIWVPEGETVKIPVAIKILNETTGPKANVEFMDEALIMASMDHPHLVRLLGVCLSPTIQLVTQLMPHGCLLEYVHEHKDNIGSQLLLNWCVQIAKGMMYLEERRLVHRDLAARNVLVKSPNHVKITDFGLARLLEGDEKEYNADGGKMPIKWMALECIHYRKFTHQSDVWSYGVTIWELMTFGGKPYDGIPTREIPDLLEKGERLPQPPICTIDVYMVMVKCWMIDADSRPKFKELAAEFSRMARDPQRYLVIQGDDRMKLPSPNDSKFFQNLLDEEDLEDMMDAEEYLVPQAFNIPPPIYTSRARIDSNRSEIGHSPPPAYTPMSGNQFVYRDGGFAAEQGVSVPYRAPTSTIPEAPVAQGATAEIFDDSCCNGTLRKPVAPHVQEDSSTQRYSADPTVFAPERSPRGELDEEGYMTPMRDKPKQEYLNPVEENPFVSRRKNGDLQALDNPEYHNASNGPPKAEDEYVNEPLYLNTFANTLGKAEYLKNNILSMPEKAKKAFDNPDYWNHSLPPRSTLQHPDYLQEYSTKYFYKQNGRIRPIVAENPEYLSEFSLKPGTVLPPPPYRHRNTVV

| Binder | binding result (human HER4 [1]) | EC50 [2] [nM] | % competition (hHER3 full length [3]) [%] | % competition (hHER3 full length [4]) [%] | MCF (human HER4 [5]) | IC50 (hHER3 full length [6]) [nM] | MCF (human HER4 [8]) | binding result (human HER1 [9]) | % competition (hHER3 full length [10]) [%] | MCF (human HER1 [11]) | MCF (human HER2 [12]) | % competition (hHER3 full length [14]) [%] | MCF (human HER2 [15]) | MCF (human HER4 [16]) | MCF (human HER1 [17]) | IC50, HRG1-β1 induced pHER3, MCF-7 (hHER3 full length [18]) [M] | IC50, HRG1-β1 induced pHER3, MDA-MB468 (hHER3 full length [18]) [M] | MCF (human HER2 [19]) | % competition (hHER3 full length [20]) [%] | binding result [21] | further results |
| --- | --- | --- | --- | --- | --- | --- | --- | --- | --- | --- | --- | --- | --- | --- | --- | --- | --- | --- | --- | --- | --- |
| B1 | no binding (tested: 2000 nM) | 0.46 | 100 | 8 | 95 | 9.44 | 343 | no binding (tested: 2000 nM) | 100 | 153 | 264 | 6 | 97 | 101 | 67 | 1.77e-08 | 2.41e-08 | 832 | 15 | binds | % competition (hHER3 full length [7]): 16%; binding result (human HER2 [13]): no binding (tested: 2000 nM); Kd [22]: 0.99 nM; kon [22]: 3.1e+06 M⁻¹ s⁻¹; MCF (human HER1 [23]): 67; EC50 [24]: 0.44 nM; IC50, HRG1-β1 induced pAkt, MCF-7 (hHER3 full length [25]): 4.65e-08 M; inhibition of HRG1-β1 induced pERK1/2, MCF-7 (hHER3 full length [25]): < 50 % inhibition |
| B2 |  |  |  |  |  |  |  |  |  |  |  |  |  |  |  |  |  |  |  |  | IC50 [26]: 3.2 nM |
| B3 |  |  |  |  |  |  |  |  |  |  |  |  |  |  |  |  |  |  |  |  | koff [27]: 0.0012 s⁻¹; IC50 [28]: 14 nM |
| B4 |  |  |  |  |  |  |  |  |  |  |  |  |  |  |  |  |  |  |  |  | koff [27]: 0.00072 s⁻¹; IC50 [28]: 5.4 nM; IC50 pHER3 blocking, HRG stimulated MCF7 (hHER3 full length [29]): 1.79e-08 M and 2e-08 M |
| B5 | no binding (tested: 2000 nM) | 1.1 | 98 | 17 | 273 | 13.3 | 91 | no binding (tested: 2000 nM) | 100 | 64 | 3610 | 10 | 1340 | 119 | 64 | 4.88e-08 | 9.99e-08 | 8570 | 15 | binds | % competition (hHER3 full length [7]): 20%; Kd [22]: 1.22 nM; kon [22]: 2.2e+06 M⁻¹ s⁻¹; MCF (human HER1 [23]): 53; EC50 [24]: 0.9 nM; IC50, HRG1-β1 induced pAkt, MCF-7 (hHER3 full length [25]): 6.9e-08 M; inhibition of HRG1-β1 induced pERK1/2, MCF-7 (hHER3 full length [25]): < 50 % inhibition |
| B6 | no binding (tested: 2000 nM) | 0.3 | 100 | 9 | 263 | 10.1 | 149 | no binding (tested: 2000 nM) | 100 | 107 | 229 | 11 | 84 | 225 | 110 | 6.79e-09 | 7.94e-09 | 409 | 15 | binds | binding result (human HER2 [13]): no binding (tested: 2000 nM); IC50 [30]: 0.25 nM; % inhibition [31]: 104%; IC50 [31]: 0.0135 nM; Kd [22]: 0.12 nM; kon [22]: 1.8e+07 M⁻¹ s⁻¹; MCF (human HER1 [23]): 74; EC50 [24]: 0.32 nM; IC50, HRG1-β1 induced pAkt, MCF-7 (hHER3 full length [25]): 2.31e-08 M; IC50, HRG1-β1 induced pERK1/2, MCF-7 (hHER3 full length [25]): 1.11e-07 M; IC50 pHER3, HRG1-β1 stimulated MCF7 (hHER3 full length [32]): 8.74e-09 M |
| B7 |  |  |  |  |  |  |  |  |  |  |  |  |  |  |  |  |  |  |  |  | IC50 [30]: 0.25 nM; IC50 pHER3, HRG1-β1 stimulated MCF7 (hHER3 full length [32]): 2.79e-09 M |
